Results reported in IntAct's records for PubMed 31515488.

B1: Caspase recruitment domain-containing protein 9 (Homo sapiens), Q9H257 (parent)
chain: MSDYENDDECWSVLEGFRVTLTSVIDPSRITPYLRQCKVLNPDDEEQVLSDPNLVIRKRKVGVLLDILQRTGHKGYVAFLESLELYYPQLYKKVTGKEPARVFSMIIDASGESGLTQLLMTEVMKLQKKVQDLTALLSSKDDFIKELRVKDSLLRKHQERVQRLKEECEAGSRELKRCKEENYDLAMRLAHQSEEKGAALMRNRDLQLEIDQLKHSLMKAEDDCKVERKHTLKLRHAMEQRPSQELLWELQQEKALLQARVQELEASVQEGKLDRSSPYIQVLEEDWRQALRDHQEQANTIFSLRKDLRQGEARRLRCMEEKEMFELQCLALRKDSKMYKDRIEAILLQMEEVAIERDQAIATREELHAQHARGLQEKDALRKQVRELGEKADELQLQVFQCEAQLLAVEGRLRRQQLETLVLSSDLEDGSPRRSQELSLPQDLEDTQLSDKGCLAGGGSPKQPFAALHQEQVLRNPHDAGLSSGEPPEKERRRLKESFENYRRKRALRKMQKGWRQGEEDRENTTGSDNTDTEGS
partner: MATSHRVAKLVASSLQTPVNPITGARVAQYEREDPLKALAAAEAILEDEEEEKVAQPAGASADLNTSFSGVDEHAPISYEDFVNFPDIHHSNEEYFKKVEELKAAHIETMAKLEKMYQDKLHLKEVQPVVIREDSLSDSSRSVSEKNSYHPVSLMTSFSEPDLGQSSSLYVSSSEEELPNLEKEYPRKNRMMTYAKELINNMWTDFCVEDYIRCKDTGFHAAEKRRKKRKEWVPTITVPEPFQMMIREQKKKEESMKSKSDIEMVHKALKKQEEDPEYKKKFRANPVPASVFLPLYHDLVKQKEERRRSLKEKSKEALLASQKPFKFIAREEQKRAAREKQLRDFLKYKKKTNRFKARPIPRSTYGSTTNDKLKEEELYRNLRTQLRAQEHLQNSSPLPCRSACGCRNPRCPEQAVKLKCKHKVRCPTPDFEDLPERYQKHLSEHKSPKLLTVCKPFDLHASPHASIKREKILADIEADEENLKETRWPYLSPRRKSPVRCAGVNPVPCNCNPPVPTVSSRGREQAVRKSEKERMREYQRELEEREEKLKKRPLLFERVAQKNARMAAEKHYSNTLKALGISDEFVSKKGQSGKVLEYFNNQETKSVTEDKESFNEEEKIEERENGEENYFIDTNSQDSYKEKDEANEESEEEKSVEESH
B2: Protein DBF4 homolog A (Homo sapiens), Q9UBU7 (parent)
chain: MNSGAMRIHSKGHFQGGIQVKNEKNRPSLKSLKTDNRPEKSKCKPLWGKVFYLDLPSVTISEKLQKDIKDLGGRVEEFLSKDISYLISNKKEAKFAQTLGRISPVPSPESAYTAETTSPHPSHDGSSFKSPDTVCLSRGKLLVEKAIKDHDFIPSNSILSNALSWGVKILHIDDIRYYIEQKKKELYLLKKSSTSVRDGGKRVGSGAQKTRTGRLKKPFVKVEDMSQLYRPFYLQLTNMPFINYSIQKPCSPFDVDKPSSMQKQTQVKLRIQTDGDKYGGTSIQLQLKEKKKKGYCECCLQKYEDLETHLLSEQHRNFAQSNQYQVVDDIVSKLVFDFVEYEKDTPKKKRIKYSVGSLSPVSASVLKKTEQKEKVELQHISQKDCQEDDTTVKEQNFLYKETQETEKKLLFISEPIPHPSNELRGLNEKMSNKCSMLSTAEDDIRQNFTQLPLHKNKQECILDISEHTLSENDLEELRVDHYKCNIQASVHVSDFSTDNSGSQPKQKSDTVLFPAKDLKEKDLHSIFTHDSGLITINSSQEHLTVQAKAPFHTPPEEPNECDFKNMDSLPSGKIHRKVKIILGRNRKENLEPNAEFDKRTEFITQEENRICSSPVQSLLDLFQTSEEKSEFLGFTSYTEKSGICNVLDIWEEENSDNLLTAFFSSPSTSTFTGF
B3: Zinc finger and BTB domain-containing protein 43 (Homo sapiens), O43298 (parent)
chain: MEPGTNSFRVEFPDFSSTILQKLNQQRQQGQLCDVSIVVQGHIFRAHKAVLAASSPYFCDQVLLKNSRRIVLPDVMNPRVFENILLSSYTGRLVMPAPEIVSYLTAASFLQMWHVVDKCTEVLEGNPTVLCQKLNHGSDHQSPSSSSYNGLVESFELGSGGHTDFPKAQELRDGENEEESTKDELSSQLTEHEYLPSNSSTEHDRLSTEMASQDGEEGASDSAEFHYTRPMYSKPSIMAHKRWIHVKPERLEQACEGMDVHATYDEHQVTESINTVQTEHTVQPSGVEEDFHIGEKKVEAEFDEQADESNYDEQVDFYGSSMEEFSGERSDGNLIGHRQEAALAAGYSENIEMVTGIKEEASHLGFSATDKLYPCQCGKSFTHKSQRDRHMSMHLGLRPYGCGVCGKKFKMKHHLVGHMKIHTGIKPYECNICAKRFMWRDSFHRHVTSCTKSYEAAKAEQNTTEAN
partner: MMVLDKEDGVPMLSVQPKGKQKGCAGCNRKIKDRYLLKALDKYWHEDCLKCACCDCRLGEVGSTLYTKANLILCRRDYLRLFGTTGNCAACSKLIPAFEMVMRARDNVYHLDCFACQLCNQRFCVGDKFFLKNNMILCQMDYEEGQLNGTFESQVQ
B4: Uncharacterized protein C12orf50 (Homo sapiens), Q8NA57 (parent)
chain: MEMQQNCSISCFWETQPLGCVKISCIFYHSKPRNINGLFLPPSSNITLQKEIQEGIPLQSQSQEPLKPQENISRPIHHPLVLKTNFEEEEEVDEQNDASSLWTKTPEEIEEKRAIKEMCYKSGEYYRFHTPPDILSSKSMTPTAEKQLEKPLENGSELQEGDSLTVPTKLSQYERQGEIKTSLHGKPKTDIAAFENGGGDCYVPQRVIFLGVDESEALTEEKEITISKCSNTKDNKDSPHPKHSLTTRLVPTTHVLNATENISMKCREDPSSMNDVQPVKKPHFKGVKKRKWIYDEPQNFPNSGMQRAVQAPRPQNKMSYHRNNKNRNAENASYIHVQRDAVRTVALNAPSRSRPTHGSYNKVHANREPKPNLSPDKYTSTSYNDSAWRKRIPFSKTYSKSEKIYPEPRRNGSK
partner: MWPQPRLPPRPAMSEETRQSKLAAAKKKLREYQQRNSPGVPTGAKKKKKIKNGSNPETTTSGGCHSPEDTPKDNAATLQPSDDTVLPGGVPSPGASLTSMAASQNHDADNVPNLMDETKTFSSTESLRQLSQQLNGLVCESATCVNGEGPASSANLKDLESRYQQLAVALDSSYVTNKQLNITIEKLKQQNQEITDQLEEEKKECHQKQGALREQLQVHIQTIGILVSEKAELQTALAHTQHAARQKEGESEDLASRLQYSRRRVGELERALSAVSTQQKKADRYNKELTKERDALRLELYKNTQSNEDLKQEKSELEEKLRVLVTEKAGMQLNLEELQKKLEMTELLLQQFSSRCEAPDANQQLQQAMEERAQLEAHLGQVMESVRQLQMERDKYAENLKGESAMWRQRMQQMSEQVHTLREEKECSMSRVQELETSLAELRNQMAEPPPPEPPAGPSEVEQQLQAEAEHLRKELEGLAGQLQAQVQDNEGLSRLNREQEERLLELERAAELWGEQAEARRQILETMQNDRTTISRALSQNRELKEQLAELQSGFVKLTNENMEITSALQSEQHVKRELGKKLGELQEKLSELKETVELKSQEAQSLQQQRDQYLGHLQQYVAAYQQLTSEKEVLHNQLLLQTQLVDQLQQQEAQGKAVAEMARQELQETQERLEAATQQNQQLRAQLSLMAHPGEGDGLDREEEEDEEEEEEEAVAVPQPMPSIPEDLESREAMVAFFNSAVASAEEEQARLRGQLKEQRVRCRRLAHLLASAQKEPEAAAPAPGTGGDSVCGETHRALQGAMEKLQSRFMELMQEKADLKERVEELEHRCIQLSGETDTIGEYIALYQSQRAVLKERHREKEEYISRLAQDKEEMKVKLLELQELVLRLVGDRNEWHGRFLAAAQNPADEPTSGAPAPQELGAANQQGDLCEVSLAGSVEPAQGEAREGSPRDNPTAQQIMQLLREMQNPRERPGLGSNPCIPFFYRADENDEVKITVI
B5: Probable splicing factor YJU2B (Homo sapiens), P13994 (parent)
chain: MGERKGVNKYYPPDFNPEKHGSLNRYHNSHPLRERARKLSQGILIIRFEMPYNIWCDGCKNHIGMGVRYNAEKKKVGNYYTTPIYRFRMKCHLCVNYIEMQTDPANCDYVIVSGAQRKEERWDMADNEQVLTTEHEKKQKLETDAMFRLEHGEADRSTLKKALPTLSHIQEAQSAWKDDFALNSMLRRRFREKKKAIQEEEERDQALQAKASLTIPLVPETEDDRKLAALLKFHTLDSYEDKQKLKRTEIISRSWFPSAPGSASSSKVSGVLKKLAQSRRTALATSPITVGDLGIVRRRSRDVPESPQHAADTPKSGEPRVPEEAAQDRPMSPGDCPPETTETPKCSSPRGQEGSRQDKPLSPAGSSQEAADTPDTRHPCSLGSSLVADYSDSESE
partner: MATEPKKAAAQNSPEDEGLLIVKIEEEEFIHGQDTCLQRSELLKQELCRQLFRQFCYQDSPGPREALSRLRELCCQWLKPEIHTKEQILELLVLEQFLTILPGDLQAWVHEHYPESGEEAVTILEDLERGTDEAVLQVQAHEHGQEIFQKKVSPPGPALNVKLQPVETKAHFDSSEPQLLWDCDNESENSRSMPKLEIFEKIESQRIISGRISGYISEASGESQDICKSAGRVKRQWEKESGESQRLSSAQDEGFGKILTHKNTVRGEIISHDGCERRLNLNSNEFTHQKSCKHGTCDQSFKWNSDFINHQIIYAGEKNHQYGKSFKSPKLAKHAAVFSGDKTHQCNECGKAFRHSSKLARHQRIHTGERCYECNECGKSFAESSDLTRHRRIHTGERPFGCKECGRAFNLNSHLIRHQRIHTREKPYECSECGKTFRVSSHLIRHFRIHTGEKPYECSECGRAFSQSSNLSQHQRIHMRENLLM
B6: KAT8 regulatory NSL complex subunit 1 (Homo sapiens), Q7Z3B3 (parent)
chain: MAAMAPALTDAAAEAHHIRFKLAPPSSTLSPGSAENNGNANILIAANGTKRKAIAAEDPSLDFRNNPTKEDLGKLQPLVASYLCSDVTSVPSKESLKLQGVFSKQTVLKSHPLLSQSYELRAELLGRQPVLEFSLENLRTMNTSGQTALPQAPVNGLAKKLTKSSTHSDHDNSTSLNGGKRALTSSALHGGEMGGSESGDLKGGMTNCTLPHRSLDVEHTTLYSNNSTANKSSVNSMEQPALQGSSRLSPGTDSSSNLGGVKLEGKKSPLSSILFSALDSDTRITALLRRQADIESRARRLQKRLQVVQAKQVERHIQHQLGGFLEKTLSKLPNLESLRPRSQLMLTRKAEAALRKAASETTTSEGLSNFLKSNSISEELERFTASGIANLRCSEQAFDSDVTDSSSGGESDIEEEELTRADPEQRHVPLRRRSEWKWAADRAAIVSRWNWLQAHVSDLEYRIRQQTDIYKQIRANKGLIVLGEVPPPEHTTDLFLPLSSEVKTDHGTDKLIESVSQPLENHGAPIIGHISESLSTKSCGALRPVNGVINTLQPVLADHIPGDSSDAEEQLHKKQRLNLVSSSSDGTCVAARTRPVLSCKKRRLVRPNSIVPLSKKVHRNSTIRPGCDVNPSCALCGSGSINTMPPEIHYEAPLLERLSQLDSCVHPVLAFPDDVPTSLHFQSMLKSQWQNKPFDKIKPPKKLSLKHRAPMPGSLPDSARKDRHKLVSSFLTTAKLSHHQTRPDRTHRQHLDDVGAVPMVERVTAPKAERLLNPPPPVHDPNHSKMRLRDHSSERSEVLKHHTDMSSSSYLAATHHPPHSPLVRQLSTSSDSPAPASSSSQVTASTSQQPVRRRRGESSFDINNIVIPMSVAATTRVEKLQYKEILTPSWREVDLQSLKGSPDEENEEIEDLSDAAFAALHAKCEEMERARWLWTTSVPPQRRGSRSYRSSDGRTTPQLGSANPSTPQPASPDVSSSHSLSEYSHGQSPRSPISPELHSAPLTPVARDTPRHLASEDTRCSTPELGLDEQSVQPWERRTFPLAHSPQAECEDQLDAQERAARCTRRTSGSKTGRETEAAPTSPPIVPLKSRHLVAAATAQRPTHR

Variants of: B1
Conditions: with FAM161A

effect of a mutation on the interaction | Variant
with no effect | V385L

Variants of: B2
Conditions: with cdc7_human CDC7, O00311

effect of a mutation on the interaction | Variant
with no effect | K579E
with no effect | I526V
with no effect | L306I

Variants of: B3
Conditions: with rbtn1_human LMO1, P25800

effect of a mutation on the interaction | Variant
disrupting interaction strength | L151V

Variants of: B4
Conditions: with goga2_human GOLGA2, Q08379

effect of a mutation on the interaction | Variant
disrupting interaction strength | W292R
with no effect | Q306R
with no effect | Y334C

Variants of: B5
Conditions: with zn165_human ZNF165, P49910

effect of a mutation on the interaction | Variant
with no effect | S22C

Variants of: B6
Conditions: with cdr2_human CDR2, Q01850
cdr2_human CDR2, Q01850, sequence (Q01850 whole entry): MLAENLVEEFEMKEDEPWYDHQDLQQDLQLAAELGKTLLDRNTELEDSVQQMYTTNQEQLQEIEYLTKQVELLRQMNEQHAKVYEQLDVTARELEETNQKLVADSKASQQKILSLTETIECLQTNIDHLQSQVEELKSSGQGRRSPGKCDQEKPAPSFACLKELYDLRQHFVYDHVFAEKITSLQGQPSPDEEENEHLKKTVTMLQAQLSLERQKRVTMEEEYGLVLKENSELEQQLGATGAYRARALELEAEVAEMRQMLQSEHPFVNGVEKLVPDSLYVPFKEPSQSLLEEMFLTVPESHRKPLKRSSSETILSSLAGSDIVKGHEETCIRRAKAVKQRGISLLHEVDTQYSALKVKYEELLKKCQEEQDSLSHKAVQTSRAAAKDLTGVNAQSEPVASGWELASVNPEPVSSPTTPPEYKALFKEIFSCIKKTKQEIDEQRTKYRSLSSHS

effect of a mutation on the interaction | Variant
with no effect | N225D

Variants of: B6
Conditions: with traf2_human TRAF2, Q12933
traf2_human TRAF2, Q12933, sequence (Q12933 whole entry): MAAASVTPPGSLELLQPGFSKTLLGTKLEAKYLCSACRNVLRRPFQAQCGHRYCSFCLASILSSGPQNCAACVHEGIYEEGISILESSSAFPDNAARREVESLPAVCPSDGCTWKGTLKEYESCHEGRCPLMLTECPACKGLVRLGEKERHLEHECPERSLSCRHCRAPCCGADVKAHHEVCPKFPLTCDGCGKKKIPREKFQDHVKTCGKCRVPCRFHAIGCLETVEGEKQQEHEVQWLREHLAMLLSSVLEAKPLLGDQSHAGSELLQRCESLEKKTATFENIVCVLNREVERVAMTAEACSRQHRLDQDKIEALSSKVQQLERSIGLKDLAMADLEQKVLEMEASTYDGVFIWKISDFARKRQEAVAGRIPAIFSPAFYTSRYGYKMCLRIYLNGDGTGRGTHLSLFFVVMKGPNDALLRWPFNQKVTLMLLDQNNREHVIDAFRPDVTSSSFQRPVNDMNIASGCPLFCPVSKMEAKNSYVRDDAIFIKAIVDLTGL

effect of a mutation on the interaction | Variant
with no effect | N225D

Variants of: B6
Conditions: with KRT15, P19012
KRT15, P19012, sequence (P19012 whole entry): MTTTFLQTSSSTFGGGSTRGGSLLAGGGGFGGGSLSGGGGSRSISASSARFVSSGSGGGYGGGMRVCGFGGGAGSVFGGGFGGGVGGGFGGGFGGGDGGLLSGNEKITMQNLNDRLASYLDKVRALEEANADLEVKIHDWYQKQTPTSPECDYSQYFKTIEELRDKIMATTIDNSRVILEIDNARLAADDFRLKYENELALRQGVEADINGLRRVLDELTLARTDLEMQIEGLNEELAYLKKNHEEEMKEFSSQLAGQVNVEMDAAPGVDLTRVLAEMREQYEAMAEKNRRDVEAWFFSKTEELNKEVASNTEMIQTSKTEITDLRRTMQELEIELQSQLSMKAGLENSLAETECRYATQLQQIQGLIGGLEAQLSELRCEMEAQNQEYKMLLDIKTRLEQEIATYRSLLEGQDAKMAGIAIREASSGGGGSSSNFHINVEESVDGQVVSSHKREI

effect of a mutation on the interaction | Variant
with no effect | N225D
